Data from patent US8445006B2, “Biomolecular coating for implants” (Georgia Tech Research Corporation, priority 2006, dated 2013).

Molecular target: T1, αvβ3 integrin (Mus musculus, UniProt O54890+P43406)
T1 construct: endogenous in cells; host or cells: MC3T3-E1 murine osteoblast-like cells
T1 sequence (P43406 31-885 limits assumed): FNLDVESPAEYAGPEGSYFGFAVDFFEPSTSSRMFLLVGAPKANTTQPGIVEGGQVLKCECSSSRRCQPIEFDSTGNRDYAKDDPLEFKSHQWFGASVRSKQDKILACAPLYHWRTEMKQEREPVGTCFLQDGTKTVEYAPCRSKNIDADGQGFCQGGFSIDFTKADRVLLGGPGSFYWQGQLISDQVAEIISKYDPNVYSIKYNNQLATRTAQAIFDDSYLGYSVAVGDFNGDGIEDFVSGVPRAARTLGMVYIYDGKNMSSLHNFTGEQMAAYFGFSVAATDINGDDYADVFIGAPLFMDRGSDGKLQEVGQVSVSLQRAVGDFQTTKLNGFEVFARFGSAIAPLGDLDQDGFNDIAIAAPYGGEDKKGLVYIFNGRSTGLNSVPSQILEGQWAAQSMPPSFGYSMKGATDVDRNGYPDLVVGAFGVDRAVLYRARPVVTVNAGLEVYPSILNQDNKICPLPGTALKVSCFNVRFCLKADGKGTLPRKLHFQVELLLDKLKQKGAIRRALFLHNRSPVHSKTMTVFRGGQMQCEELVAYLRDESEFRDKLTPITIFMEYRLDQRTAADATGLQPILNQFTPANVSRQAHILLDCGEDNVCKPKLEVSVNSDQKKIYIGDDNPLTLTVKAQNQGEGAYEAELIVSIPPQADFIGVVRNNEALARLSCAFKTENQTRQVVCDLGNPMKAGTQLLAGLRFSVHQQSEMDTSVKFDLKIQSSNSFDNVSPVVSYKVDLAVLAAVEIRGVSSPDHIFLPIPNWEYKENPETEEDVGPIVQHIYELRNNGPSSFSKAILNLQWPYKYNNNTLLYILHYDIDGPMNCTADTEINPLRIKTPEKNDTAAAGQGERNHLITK
T1 sequence (P43406 887-1044 limits assumed): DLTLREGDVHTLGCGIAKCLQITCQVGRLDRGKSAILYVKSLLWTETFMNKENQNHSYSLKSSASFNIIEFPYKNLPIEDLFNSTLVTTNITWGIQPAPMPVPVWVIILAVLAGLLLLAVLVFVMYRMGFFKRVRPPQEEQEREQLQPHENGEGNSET
T1 sequence (O54890 26-787): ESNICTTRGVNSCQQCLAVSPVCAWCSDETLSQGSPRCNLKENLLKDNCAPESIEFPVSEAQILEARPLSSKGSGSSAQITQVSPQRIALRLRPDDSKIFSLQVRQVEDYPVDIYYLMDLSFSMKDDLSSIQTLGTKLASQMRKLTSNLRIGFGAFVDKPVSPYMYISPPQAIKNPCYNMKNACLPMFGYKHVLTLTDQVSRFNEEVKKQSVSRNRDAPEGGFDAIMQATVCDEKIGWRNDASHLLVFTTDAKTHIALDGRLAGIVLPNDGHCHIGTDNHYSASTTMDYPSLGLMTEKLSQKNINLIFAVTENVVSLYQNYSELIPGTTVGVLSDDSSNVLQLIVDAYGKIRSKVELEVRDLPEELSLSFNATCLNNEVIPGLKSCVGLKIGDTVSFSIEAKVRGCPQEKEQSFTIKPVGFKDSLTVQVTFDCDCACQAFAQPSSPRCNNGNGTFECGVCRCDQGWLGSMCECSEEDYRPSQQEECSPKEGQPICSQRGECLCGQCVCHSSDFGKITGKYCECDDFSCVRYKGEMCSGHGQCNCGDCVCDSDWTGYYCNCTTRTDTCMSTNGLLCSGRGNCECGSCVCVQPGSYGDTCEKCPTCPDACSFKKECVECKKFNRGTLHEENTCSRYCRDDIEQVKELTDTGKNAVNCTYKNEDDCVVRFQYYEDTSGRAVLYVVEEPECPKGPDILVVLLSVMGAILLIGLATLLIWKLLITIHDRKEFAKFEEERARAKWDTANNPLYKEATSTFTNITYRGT
Assay: Crosslinking/extraction immunostaining of bound integrin
Type: cell-based, murine
Conditions: 4 h on saturated ligand-functionalized SAMs
Experimental: Surfaces were prepared on either 6-well plate lids or 35 mm tissue culture dishes, and cells seeded at 75 cells/mm^2 in serum-containing media for 4 h at 37° C. For integrin staining, a cross-linking/extraction biochemical method that selectively isolates bound integrins was employed. Cells were washed, and 1.0 mM DTSSP (Pierce) was added for 15 min to cross-link ligated integrins. After quenching with 50 mM Tris, uncrosslinked cellular components were extracted in 0.1% SDS supplemented with protease inhibitors (350 μg/ml PMSF). Samples were then blocked in 5% FBS for 1 h and incubated with integrin-specific antibodies for 1 h at 37° C. Fluorochrome-labeled secondary antibodies were then incubated for 1 h at 37° C. Following washing, samples were mounted on slides with Gel/Mount mounting media (Biomeda, Foster City, Calif.). For staining of focal adhesions, cells were extracted in 0.5% Triton X-100 in ice-cold cytoskeleton buffer (50 mM NaCl, 3 mM MgCl2, 150 mM sucrose, 20 μg/ml aprotonin, 1 μg/ml leupeptin, 1 mM PMSF, 50 mM Tris, pH 6.8) for 2 min and fixed in cold 3.7% formaldehyde in DPBS for 5 min. Cultures were blocked, subsequently incubated in anti-vinculin monoclonal antibody (1:70 in 5% FBS) and fluorochrome-labeled secondary antibodies for 1 h, and samples mounted on slides.
Since MC3T3-E1 cells assemble robust focal adhesions containing clustered integrins and intracellular structural and signaling proteins, integrin binding and focal adhesion assembly on the engineered interfaces was examined by staining for different integrin subunits and vinculin, which localizes to focal adhesions. MC3T3-E1 cells were allowed to adhere on each saturated ligand-functionalized support for 4 h and integrin binding was evaluated via a crosslinking/extraction and immunostaining protocol, which isolates integrins ligated to the ligand. […] The crosslinking and extraction technique relies in coupling free amines on both the receptor and ligand. Since the tethered RGD has no free amine, the αvβ3 staining in the RGD surfaces is attributed to focal adhesions that were not completely extracted. […] Both surfaces assembled focal adhesions containing vinculin.

| Substance | bound αvβ3 integrin staining |
| --- | --- |
| FNIII7-10: monobiotinylated recombinant fibronectin fragment spanning the 7-10th type III repeats of fibronectin; α5β1 integrin ligand | minimal αvβ3 binding |
| GRGDSPC [RGD peptide, linear RGD oligopeptide purchased from BACHEM; primarily supports αvβ3-mediated adhesion, reference compound] | clustering of αvβ3 |
